{"source": "patent US20030148956A1", "about": "(PROCTER AND GAMBLE, published 2003)", "binders": {"B1": {"name": "SEQ ID NO 339 (peptide)", "peptide": "DNPSLSIDLPQYLLRTLLELARTQSQRERAEQNAIIFASV-NH2"}, "B2": {"name": "SEQ ID NO 326 (peptide)", "peptide": "DNPSLSIDLPLLLLRTLLELEKTQSQRERAEQNANIFANV-NH2"}, "B3": {"name": "SEQ ID NO 337 (peptide)", "peptide": "DNPSLSIDLPLILLRTLLELEKTQSQRERAEQNARIFDRV-NH2"}, "B4": {"name": "SEQ ID NO 348 (peptide)", "peptide": "Ac-PSLSIDLPLLLLRTLLELEKTQSQRERAEQNAIIFASV-NH2"}, "B5": {"name": "SEQ ID NO 323 (peptide)", "peptide": "DNPSLSIDLPLLLLRTLLELEKTQSQRERAEQNAEIFAEV-NH2"}, "B6": {"name": "SEQ ID NO 344 (peptide)", "peptide": "PSLSIDLPLLLLRTLLELEKTQSQRERAEQNAIIFASV-NH2"}, "B7": {"name": "SEQ ID NO 346 (peptide)", "peptide": "DNPSLSIDLPLLLLRTLLELEKTQSQRERAEQNAIIFASV-NH2"}, "B8": {"name": "SEQ ID NO 345 (peptide)", "peptide": "DNPSLSIDLPLILLRTLLELEKTQSQRERAEQNAIIFASV-NH2"}, "B9": {"name": "SEQ ID NO 320 (peptide)", "peptide": "ZGPPISIDLPLQLLRKVIEIEKQEKEKQQATTNARILARV", "modifications": "C-terminal amide"}, "B10": {"name": "SEQ ID NO 321 (peptide)", "peptide": "B9 peptide with L11F, V17T, I36L, A38D", "modifications": "C-terminal amide"}, "B11": {"name": "SEQ ID NO 349 (peptide)", "peptide": "ZGPPISIDLPLQLLRKVIEIEKQEKEKQQAANNALLLATI", "modifications": "C-terminal amide"}, "B12": {"name": "SEQ ID NO 350 (peptide)", "peptide": "B11 peptide with L11F, A38D", "modifications": "C-terminal amide"}, "B13": {"name": "SEQ ID NO 335 (peptide)", "peptide": "DNPSLSIDLPLILLRTLLELEKTQSQRERAEQNARIFARV-NH2"}, "B14": {"name": "SEQ ID NO 329 (peptide)", "peptide": "DNPSLSIDLPLFLLRTLLELARTQSQRERAEQNARIFARV-NH2"}, "B15": {"name": "SEQ ID NO 338 (peptide)", "peptide": "DNPSLSIDLPLLLLRTLLELEKTQSQRERAEQNARIFDRV-NH2"}}, "note": "Where a chain is given by its changes, count along the chain named. Ends that are not written are not given here.", "data": [{"target": "corticotropin releasing factor 1 receptor", "experiment": "cell-based or functional assay", "units": {"CRF1R EC50": "nM", "CRF1R Emax %": "%"}, "values": [{"binder": "B1", "CRF1R EC50": 1000, "CRF1R Emax %": 13.2}, {"binder": "B2", "CRF1R EC50": 1000, "CRF1R Emax %": 30.1}, {"binder": "B3", "CRF1R EC50": 1000, "CRF1R Emax %": 36.5}, {"binder": "B4", "CRF1R EC50": 630}, {"binder": "B5", "CRF1R EC50": 1000, "CRF1R Emax %": 36.9}, {"binder": "B6", "CRF1R EC50": 650}, {"binder": "B7", "CRF1R EC50": 1000}, {"binder": "B8", "CRF1R EC50": 1000, "CRF1R Emax %": 18.8}, {"binder": "B9", "CRF1R EC50": 718, "CRF1R Emax %": 68.8}, {"binder": "B10", "CRF1R EC50": 1000, "CRF1R Emax %": 33.8}, {"binder": "B11", "CRF1R EC50": 1000, "CRF1R Emax %": 44.2}, {"binder": "B12", "CRF1R EC50": 1000, "CRF1R Emax %": 48}, {"binder": "B13", "CRF1R EC50": 1000, "CRF1R Emax %": 49.5}, {"binder": "B14", "CRF1R EC50": 1000, "CRF1R Emax %": 98.4}, {"binder": "B15", "CRF1R EC50": 1000, "CRF1R Emax %": 41.1}]}, {"target": "T1, corticotropin releasing factor 2 receptor", "T1 sequence (Q13324 whole entry, species assumed, looked up)": "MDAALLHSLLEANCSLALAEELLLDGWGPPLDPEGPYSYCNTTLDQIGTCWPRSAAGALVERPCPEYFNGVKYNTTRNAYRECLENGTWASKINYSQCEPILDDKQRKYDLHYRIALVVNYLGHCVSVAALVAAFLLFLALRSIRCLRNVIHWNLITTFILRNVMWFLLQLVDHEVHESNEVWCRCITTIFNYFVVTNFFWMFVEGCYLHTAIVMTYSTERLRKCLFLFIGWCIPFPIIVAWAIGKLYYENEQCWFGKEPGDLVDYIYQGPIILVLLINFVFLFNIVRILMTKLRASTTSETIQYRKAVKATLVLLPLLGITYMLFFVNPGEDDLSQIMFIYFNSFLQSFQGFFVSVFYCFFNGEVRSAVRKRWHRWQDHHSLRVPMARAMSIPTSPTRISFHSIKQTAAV", "experiment": "cell-based or functional assay", "units": {"CRF2R EC50": "nM", "CRF2R Emax %": "%"}, "values": [{"binder": "B1", "CRF2R EC50": 100, "CRF2R Emax %": 47.9}, {"binder": "B2", "CRF2R EC50": 33.7, "CRF2R Emax %": 100}, {"binder": "B3", "CRF2R EC50": 23.9, "CRF2R Emax %": 86.7}, {"binder": "B4", "CRF2R EC50": 5.77}, {"binder": "B5", "CRF2R EC50": 19.6, "CRF2R Emax %": 100}, {"binder": "B6", "CRF2R EC50": 4.3}, {"binder": "B7", "CRF2R EC50": 8.48}, {"binder": "B8", "CRF2R EC50": 39.7, "CRF2R Emax %": 100}, {"binder": "B9", "CRF2R EC50": 19.1, "CRF2R Emax %": 100}, {"binder": "B10", "CRF2R EC50": 19.6, "CRF2R Emax %": 86.8}, {"binder": "B11", "CRF2R EC50": 13.8, "CRF2R Emax %": 100}, {"binder": "B12", "CRF2R EC50": 11.6, "CRF2R Emax %": 98.1}, {"binder": "B13", "CRF2R EC50": 28.1, "CRF2R Emax %": 91}, {"binder": "B14", "CRF2R EC50": 5.15, "CRF2R Emax %": 98.3}, {"binder": "B15", "CRF2R EC50": 19.3, "CRF2R Emax %": 77.5}]}]}
